Measured values reported in patent US7235626B1, “Structured peptide scaffold for displaying turn libraries on phage” (Genentech, Inc., priority 1999, dated 2007).
Read-outs that look alike come from different tables or passages of the source. Positions of bridges follow the written chain, without caps; N, C: chain ends. No end group written: not given here.

Tests used:
[1] = Thiol-disulfide exchange equilibrium (GSH/GSSG): intramolecular disulfide formation; ddG=-RT ln(Ceff,X/Ceff,Leu), gly-asn turn peptides 1; settings: the molecule shown is the open-chain precursor; 32-membered ring; water, ca. 0.15 M Tris, 1 mM EDTA, pH 8.10, 25 mM total glutathione; 0.375 mM; 20.0 °C; 1.5 h
[2] = Thiol-disulfide exchange equilibrium (GSH/GSSG redox buffer): intramolecular disulfide formation between two Cys of reduced peptide; Ceff=([pep_ox]/[pep_red])x([GSH]^2/[GSSG]), HPLC after acid quench; settings: the molecule shown is the open-chain precursor; 32-membered ring; water, ca. 0.15 M Tris, 1 mM EDTA, pH 8.10, 25 mM total glutathione; 0.375 mM; 20.0 °C; 1.5 h
[3] = cited from earlier work
[4] = Cysteine effective concentration (Ceff) measurement, thiol-disulfide equilibrium relative to glutathione; type: physicochemical; settings: Table 2, bhpW and CD4 C′-C″ loop peptides, pH 8.10, 20° C.
Procedure: Cysteine Effective Concentration Measurements. Glutathione stock solutions were prepared by mixing 3 volumes of 0.2 M reduced glutathione (GSH) with 1 volume of 0.1 M oxidized glutatione (GSSG). Aliquots were stored at −80° C. and were stable for several months; use of a single batch eliminated any error in ΔΔG values that might arise from variability of total glutathione concentration. Thiol-disulfide equilibria were established by mixing 50 μL peptide stock (approximately 3 mM in water) with 50 μL glutathione stock, deoxygenating the acidic solution with vacuum/argon cycles from a Firestone valve, then adding 300 μL of deoxygenated buffer by syringe (0.2 M tris, pH 8.0; 1 mM EDTA; 67 mM tris base to titrate glutathione), followed by further deoxygenation of the mixture. The final pH of all reaction mixtures was 8.10±0.05. Solutions were stirred under argon and maintained at 20° C. in a water bath. After 1.5 h, successive aliquots (100 μL) were removed with a gastight syringe, immediately quenched by discharge into 400 μL of 3.1 mM HCl, and analyzed by HPLC with a minimum of delay. Ceff values were calculated from the molar ratios of the reduced and oxidized forms of peptide and glutathione (peak area ratios corrected for absorbance differences measured by HPLC), assuming 0.025 M total glutathione monomer (i.e., neglecting the minor amount (<1%) of glutathione present in mixed disulfides with peptide): Ceff=([peptideox]/[peptidered])×([GSH]^2/[GSSG]) [GSH]+2[GSSG]=0.025 M [GSSG]=0.025 M/{2+3.26 (GSH peak area/GSSG peak area)} [peptideox]/[peptidered]=equilibrium peak area ratio/absorbance ratio
Two or three samples from each reaction mixture were analyzed; there were no shifts in populations with time, and calculated Ceff values typically varied by less than 5% (equivalent to 30 cal/mol uncertainty in ΔΔG).

[5] = Circular dichroism spectra of peptides; type: physicochemical; settings: 10° C.; 20 μM peptide in 20 mM potassium phosphate, pH 7.0
Procedure: Terminal serine and lysine residues were added to improve the solubility of some variants of the CD4 peptide, which are otherwise uncharged. A similar modification was made to bhpW as a control. Non-turn residues that differ between bhpW and the CD4 loop are underlined. Coelution of reduced and oxidized peptides prevented measurement of Ceff for the T2, N3 variant of the CD4 peptide. Circular dichroism spectra were acquired at 10° C. with an Aviv Instruments, Inc. Model 202 spectrophotometer; peptide concentrations were 20 μM in 20 mM potassium phosphate, pH 7.0.

Compound: CC(=O)N[C@@H](CS)C(=O)N[C@H](C(=O)N[C@@H](CC(=O)O)C(=O)N[C@@H](CCC(=O)O)C(=O)NCC(=O)N[C@@H](CC(N)=O)C(=O)N[C@@H](CCCCN)C(=O)N[C@@H](CC(C)C)C(=O)N[C@H](C(=O)N[C@@H](CS)C(N)=O)[C@@H](C)O)[C@@H](C)O [Ac-CTDEGNKLTC-NH2]
- ring closure, dG (kcal/mol relative to X=Leu) [1]: 0.32

Compound: CC(=O)N[C@@H](CS)C(=O)N[C@H](C(=O)N[C@@H](Cc1ccccc1)C(=O)N[C@@H](CCC(=O)O)C(=O)NCC(=O)N[C@@H](CC(N)=O)C(=O)N[C@@H](CCCCN)C(=O)N[C@@H](CC(C)C)C(=O)N[C@H](C(=O)N[C@@H](CS)C(N)=O)[C@@H](C)O)[C@@H](C)O [Ac-CTFEGNKLTC-NH2]
- ring closure, Ceff [2]: 88 mM

Compound: CC(=O)N[C@@H](CS)C(=O)N[C@H](C(=O)N[C@@H](CCCCN)C(=O)N[C@@H](CCC(=O)O)C(=O)NCC(=O)N[C@@H](CC(N)=O)C(=O)N[C@@H](CCCCN)C(=O)N[C@@H](CC(C)C)C(=O)N[C@H](C(=O)N[C@@H](CS)C(N)=O)[C@@H](C)O)[C@@H](C)O [Ac-CTKEGNKLTC-NH2]
- ring closure, Ceff [2]: 52 mM

Compound: CC(=O)N[C@@H](CS)C(=O)N[C@H](C(=O)N[C@@H](CC(C)C)C(=O)N[C@@H](CCC(=O)O)C(=O)NCC(=O)N[C@@H](CC(N)=O)C(=O)N[C@@H](CCCCN)C(=O)N[C@@H](CC(C)C)C(=O)N[C@H](C(=O)N[C@@H](CS)C(N)=O)[C@@H](C)O)[C@@H](C)O [Ac-CTLEGNKLTC-NH2]
- ring closure, Ceff [2]: 85 mM
- ring closure, dG (kcal/mol relative to X=Leu) [1]: 0

Compound: CC(=O)N[C@@H](CS)C(=O)N[C@H](C(=O)N[C@@H](CC(N)=O)C(=O)N[C@@H](CCC(=O)O)C(=O)NCC(=O)N[C@@H](CC(N)=O)C(=O)N[C@@H](CCCCN)C(=O)N[C@@H](CC(C)C)C(=O)N[C@H](C(=O)N[C@@H](CS)C(N)=O)[C@@H](C)O)[C@@H](C)O [Ac-CTNEGNKLTC-NH2]
- ring closure, Ceff [2]: 52 mM

Compound: CC(=O)N[C@@H](CS)C(=O)N[C@H](C(=O)N[C@H](C(=O)N[C@@H](CCC(=O)O)C(=O)NCC(=O)N[C@@H](CC(N)=O)C(=O)N[C@@H](CCCCN)C(=O)N[C@@H](CC(C)C)C(=O)N[C@H](C(=O)N[C@@H](CS)C(N)=O)[C@@H](C)O)[C@@H](C)O)[C@@H](C)O [Ac-CTTEGNKLTC-NH2]
- ring closure, dG (kcal/mol relative to X=Leu) [1]: 0.3

Compound: CC(=O)N[C@@H](CS)C(=O)N[C@H](C(=O)N[C@H](C(=O)N[C@@H](CCC(=O)O)C(=O)NCC(=O)N[C@@H](CC(N)=O)C(=O)N[C@@H](CCCCN)C(=O)N[C@@H](CC(C)C)C(=O)N[C@H](C(=O)N[C@@H](CS)C(N)=O)[C@@H](C)O)C(C)C)[C@@H](C)O [Ac-CTVEGNKLTC-NH2]
- ring closure, Ceff [2]: 73 mM
- ring closure, dG (kcal/mol relative to X=Leu) [1]: 0.09

Compound: CC(=O)N[C@@H](CS)C(=O)N[C@H](C(=O)N[C@@H](Cc1c[nH]c2ccccc12)C(=O)N[C@@H](CCC(=O)O)C(=O)NCC(=O)N[C@@H](CC(N)=O)C(=O)N[C@@H](CCCCN)C(=O)N[C@@H](CC(C)C)C(=O)N[C@H](C(=O)N[C@@H](CS)C(N)=O)[C@@H](C)O)[C@@H](C)O [Ac-CTWEGNKLTC-NH2]
- ring closure, Ceff [2]: 210 mM
- ring closure, dG (kcal/mol relative to X=Leu) [1]: -0.53

Compound: CC(=O)N[C@@H](CS)C(=O)N[C@H](C(=O)N[C@@H](Cc1ccc(O)cc1)C(=O)N[C@@H](CCC(=O)O)C(=O)NCC(=O)N[C@@H](CC(N)=O)C(=O)N[C@@H](CCCCN)C(=O)N[C@@H](CC(C)C)C(=O)N[C@H](C(=O)N[C@@H](CS)C(N)=O)[C@@H](C)O)[C@@H](C)O [Ac-CTYEGNKLTC-NH2]
- ring closure, Ceff [2]: 98 mM
- ring closure, dG (kcal/mol relative to X=Leu) [1]: -0.08

Compound: CC(C)C[C@H](NC(=O)[C@H](Cc1ccccc1)NC(=O)[C@H](CO)NC(=O)CNC(=O)[C@H](CCC(N)=O)NC(=O)[C@H](CC(N)=O)NC(=O)CNC(=O)[C@H](CS)NC(=O)[C@@H](N)CO)C(=O)N[C@H](C(=O)N[C@@H](CS)C(=O)N[C@@H](CCCCN)C(N)=O)[C@@H](C)O [H-SCGNQGSFLTCK-NH2]
- ring closure, Ceff [2]: 45 mM

Compound: CC(C)C[C@H](NC(=O)[C@H](Cc1ccccc1)NC(=O)[C@H](CO)NC(=O)CNC(=O)[C@H](CCC(N)=O)NC(=O)[C@H](Cc1c[nH]c2ccccc12)NC(=O)CNC(=O)[C@H](CS)NC(=O)[C@@H](N)CO)C(=O)N[C@H](C(=O)N[C@@H](CS)C(=O)N[C@@H](CCCCN)C(N)=O)[C@@H](C)O [H-SCGWQGSFLTCK-NH2]
- ring closure, Ceff [2]: 48 mM

Compound: CC(C)C[C@H](NC(=O)[C@H](CCCCN)NC(=O)[C@H](CC(N)=O)NC(=O)CNC(=O)[C@H](CCC(=O)O)NC(=O)[C@H](Cc1c[nH]c2ccccc12)NC(=O)[C@@H](NC(=O)[C@H](CS)NC(=O)[C@@H](N)CO)[C@@H](C)O)C(=O)N[C@H](C(=O)N[C@@H](CS)C(=O)N[C@@H](CCCCN)C(N)=O)[C@@H](C)O [H-SCTWEGNKLTCK-NH2]
- ring closure, Ceff [2]: 273 mM

Compound: CC(C)C[C@H](NC(=O)[C@H](Cc1ccccc1)NC(=O)[C@H](CO)NC(=O)CNC(=O)[C@H](CCC(N)=O)NC(=O)[C@H](Cc1c[nH]c2ccccc12)NC(=O)[C@@H](NC(=O)[C@H](CS)NC(=O)[C@@H](N)CO)[C@@H](C)O)C(=O)N[C@H](C(=O)N[C@@H](CS)C(=O)N[C@@H](CCCCN)C(N)=O)[C@@H](C)O [H-SCTWQGSFLTCK-NH2]
- ring closure, Ceff [2]: 120 mM

Compound: GEWTYDDATKTFTVTE (turn peptide) [hairpin peptide derived from the B1 domain of protein G]
- hairpin population ([3]; 273 K, from denaturation study): 80%
- ΔH of folding ([3]; assuming ΔCp=0): -11.6 kcal/mol
- ΔS of folding ([3]; assuming ΔCp=0): −39 cal/mol K
- hairpin population ([3]; in water, NMR estimate): about 50%

Compound: IYSNPDGTWT (turn peptide) [variant of tendamistat-based model peptide]
- hairpin population ([3]; in water, NMR estimate): 30%

Compound: IYSNSDGTWT (turn peptide)
- hairpin population ([3]; in water, NMR estimate): 30%

Compound: KKYTVSINGKKITVSI (turn peptide)
- ΔG of hairpin formation ([3]; 298 K): 0.08 kcal/mol
- hairpin population ([3]; in water, 303 K): 50%

Compound: MQIGVKNPDGTITLEV (turn peptide)
- hairpin population ([3]; in water, NMR estimate): ca. 80%

Compound: RGITVNGKTYGR (turn peptide) [designed β-hairpin peptide, type I′ turn flanked by three-residue strands]
- hairpin population ([3]; in water, NMR estimate): about 30%

Compound: SCGNQGSFLTCK-NH2 (disulfide 2-11 (inferred)) [cd1a]
- Ceff [4]: 45 ± 4 mM
- [θ]215 [5]: −1,500 deg cm^2 dmol^−1

Compound: SCGWQGSFLTCK-NH2 (disulfide 2-11 (inferred))
- Ceff [4]: 48 ± 0 mM
- [θ]215 [5]: −6,100 deg cm^2 dmol^−1

Compound: SCTNQGSFLTCK-NH2 (disulfide 2-11 (inferred)) [T2, N3 variant of the CD4 peptide]
- [θ]215 [5]: −5,000 deg cm^2 dmol^−1

Compound: SCTWEGNKLTCK-NH2 (disulfide 2-11 (inferred)) [bhpW with terminal serine and lysine added as a control]
- Ceff [4]: 273 ± 2 mM
- [θ]215 [5]: −17,400 deg cm^2 dmol^−1

Compound: SCTWQGSFLTCK-NH2 (disulfide 2-11 (inferred)) [cd2a]
- Ceff [4]: 120 ± 0 mM
- [θ]215 [5]: −14,000 deg cm^2 dmol^−1

Compound: YITNSDGTWT (turn peptide) [model peptide forming a register-shifted hairpin]
- hairpin population ([3]; in water, NMR estimate): 80%
